According to patent US20040219615A1 (YEDA RESEARCH AND DEVELOPMENT, published 2004):
Each block holds one binder with its values, some of them ahead of it.

B4: clone #84 (other, UniProt Q99675 1-332, looked up)
chain: MAAVFLVTLYEYSPLFYIAVVFTCFIVTTGLVLGWFGWDVPVILRNSEETQFSTRVFKKQMRQVKNPFGLEITNPSSASITTGITLTTDCLEDSLLTCYWGCSVQKLYEALQKHVYCFRISTPQALEDALYSEYLYQEQYFIKKDSKEEIYCQLPRDTKIEDFGTVPRSRYPLVALLTLADEDDREIYDIISMVSVIHIPDRTYKLSCRILYQYLLLAQGQFHDLKQLFMSANNNFTPSNNSSSEEKNTDRSLLEKVGLSESEVEPSEENSKDCVVCQNGTVNWVLLPCRHTCLCDGCVKYFQQCPMCRQFVQESFALCSQKEQDKDKPKTL
notes: Isolated from the B-cell cDNA library with full-length RAP-2 as bait; The whole CGR19 entry is named; also called CGR19; Cell Growth Regulatory protein CGR19

Assays:
[1] = target: T1, RAP-2 (RIP-associated protein-2), full-length (human, UniProt Q9Y6K9 1-419); assay: binding assay tests (two-hybrid)
T1 construct: Full-length RAP-2; The RIP screen first yielded a partial clone of about 1.5 Kb; also called 303; RAP-303

[2] = target: T1, RAP-2 (RIP-associated protein-2), …; assay: deletion analysis, self-association of RAP-2
clone #84 = target: B4; assay: yeast two-hybrid test
[3] = target: T2, TIP60 (histone acetyltransferase) (UniProt Q92993 1-513, limits assumed); assay: yeast two-hybrid test
T2 sequence (Q92993 whole entry): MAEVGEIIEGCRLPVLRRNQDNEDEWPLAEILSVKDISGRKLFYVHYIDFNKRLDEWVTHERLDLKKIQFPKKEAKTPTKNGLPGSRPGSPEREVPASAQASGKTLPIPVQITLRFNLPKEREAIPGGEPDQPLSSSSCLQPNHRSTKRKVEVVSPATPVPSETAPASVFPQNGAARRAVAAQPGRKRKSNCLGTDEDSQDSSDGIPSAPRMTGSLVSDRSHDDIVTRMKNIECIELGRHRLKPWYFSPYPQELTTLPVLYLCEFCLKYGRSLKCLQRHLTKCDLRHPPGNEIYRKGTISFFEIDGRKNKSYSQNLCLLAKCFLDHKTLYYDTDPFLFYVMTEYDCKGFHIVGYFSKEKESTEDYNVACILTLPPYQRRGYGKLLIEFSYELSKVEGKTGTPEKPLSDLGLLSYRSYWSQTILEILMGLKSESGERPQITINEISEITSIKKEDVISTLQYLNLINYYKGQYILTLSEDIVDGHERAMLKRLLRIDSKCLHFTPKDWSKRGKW

NIK = NIK (UniProt Q99558 1-947); assay: yeast two-hybrid test
Sequence of NIK (Q99558 whole entry): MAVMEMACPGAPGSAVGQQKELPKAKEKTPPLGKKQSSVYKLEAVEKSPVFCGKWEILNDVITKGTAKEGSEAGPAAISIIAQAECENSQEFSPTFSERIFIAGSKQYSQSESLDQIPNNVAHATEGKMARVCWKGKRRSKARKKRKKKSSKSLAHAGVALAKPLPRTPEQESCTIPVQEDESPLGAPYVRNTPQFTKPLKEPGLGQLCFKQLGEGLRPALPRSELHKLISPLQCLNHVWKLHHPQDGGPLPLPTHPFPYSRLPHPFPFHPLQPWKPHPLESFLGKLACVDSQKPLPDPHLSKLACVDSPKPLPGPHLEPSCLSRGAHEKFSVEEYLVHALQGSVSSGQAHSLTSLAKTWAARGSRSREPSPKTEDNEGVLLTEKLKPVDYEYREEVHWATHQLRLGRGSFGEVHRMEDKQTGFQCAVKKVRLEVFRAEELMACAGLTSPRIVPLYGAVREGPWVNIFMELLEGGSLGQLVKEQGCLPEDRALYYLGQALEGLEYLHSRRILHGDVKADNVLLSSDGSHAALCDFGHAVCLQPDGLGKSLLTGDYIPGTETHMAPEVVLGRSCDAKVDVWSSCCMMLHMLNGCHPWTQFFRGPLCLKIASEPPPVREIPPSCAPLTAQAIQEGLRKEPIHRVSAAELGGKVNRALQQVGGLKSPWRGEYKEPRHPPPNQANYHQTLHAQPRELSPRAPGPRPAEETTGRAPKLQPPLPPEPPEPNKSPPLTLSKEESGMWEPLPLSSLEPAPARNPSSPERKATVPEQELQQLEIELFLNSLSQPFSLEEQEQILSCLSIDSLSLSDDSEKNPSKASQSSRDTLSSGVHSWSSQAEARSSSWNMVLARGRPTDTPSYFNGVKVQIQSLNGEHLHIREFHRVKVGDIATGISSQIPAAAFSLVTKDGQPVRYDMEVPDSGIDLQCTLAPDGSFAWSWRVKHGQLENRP

[4] = target: T3, RIP (receptor interacting protein) (human, UniProt Q13546 1-671); assay: yeast two-hybrid test
T3 construct: mature; Full-length RIP was the two-hybrid bait; In co-immunoprecipitation it was pulled down with anti-FLAG mAbs (FLAG tag implied); also called RIP protein
T3 sequence (looked up): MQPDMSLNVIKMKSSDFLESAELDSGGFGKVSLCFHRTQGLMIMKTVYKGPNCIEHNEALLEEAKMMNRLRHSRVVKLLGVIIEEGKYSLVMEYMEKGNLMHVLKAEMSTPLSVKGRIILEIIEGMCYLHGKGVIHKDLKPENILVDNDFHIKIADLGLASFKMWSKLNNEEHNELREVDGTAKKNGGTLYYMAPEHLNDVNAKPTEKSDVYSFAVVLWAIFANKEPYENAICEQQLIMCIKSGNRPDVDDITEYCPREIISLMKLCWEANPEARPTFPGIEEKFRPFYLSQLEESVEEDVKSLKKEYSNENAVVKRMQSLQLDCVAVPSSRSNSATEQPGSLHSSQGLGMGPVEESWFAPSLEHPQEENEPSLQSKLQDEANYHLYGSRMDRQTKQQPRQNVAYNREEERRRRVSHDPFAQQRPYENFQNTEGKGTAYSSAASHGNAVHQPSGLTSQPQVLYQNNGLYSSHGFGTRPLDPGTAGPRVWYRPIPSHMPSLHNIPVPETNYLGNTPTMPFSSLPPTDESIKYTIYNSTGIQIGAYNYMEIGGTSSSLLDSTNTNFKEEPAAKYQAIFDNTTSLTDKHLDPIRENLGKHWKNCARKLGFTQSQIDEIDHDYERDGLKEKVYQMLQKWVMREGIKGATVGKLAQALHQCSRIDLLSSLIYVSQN

TRAF2 = target: T4, TRAF2 (UniProt Q12933 1-501, limits assumed); assay: yeast two-hybrid test
T4 sequence (looked up): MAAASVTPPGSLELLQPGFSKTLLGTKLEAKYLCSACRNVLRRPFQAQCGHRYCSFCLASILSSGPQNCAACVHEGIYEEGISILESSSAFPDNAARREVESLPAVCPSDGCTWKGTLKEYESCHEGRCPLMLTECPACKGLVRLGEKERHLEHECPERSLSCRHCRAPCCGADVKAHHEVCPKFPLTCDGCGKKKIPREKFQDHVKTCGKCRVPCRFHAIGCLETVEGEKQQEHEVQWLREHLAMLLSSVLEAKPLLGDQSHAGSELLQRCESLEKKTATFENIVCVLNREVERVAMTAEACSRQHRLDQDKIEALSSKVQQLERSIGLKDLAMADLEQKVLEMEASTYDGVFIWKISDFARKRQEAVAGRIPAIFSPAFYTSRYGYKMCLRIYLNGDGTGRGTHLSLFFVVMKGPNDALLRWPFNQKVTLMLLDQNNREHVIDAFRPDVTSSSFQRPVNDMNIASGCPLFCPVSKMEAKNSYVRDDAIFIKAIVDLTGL

[5] = target: T2, TIP60 (histone acetyltransferase); assay: deletion analysis of RAP-2

binding result [1]: no binding | binding result (clone #84): no binding
B5: MORT-1 (other, UniProt Q13158 1-208, looked up)
chain: MDPFLVLLHSVSSSLSSSELTELKFLCLGRVGKRKLERVQSGLDLFSMLLEQNDLEPGHTELLRELLASLRRHDLLRRVDDFEAGAAAGAAPGEEDLCAAFNVICDNVGKDWRRLARQLKVSDTKIDSIEDRYPRNLTERVRESLRIWKNTEKENATVAHLVGALRSCQMNLVADLVQEVQQARDLQNRSGAMSPMSWNSDASTSEAS
notes: also called FADD

binding result [2]: binds
B6: RAP-2 deletion fragment containing amino acids 1-264 (other)
chain: MNRHLWKSQLCEMVQPSGGPAADQDVLGEESPLGKPAMLHLPSEQGAPETLQRCLEENQELRDAIRQSNQILRERCEELLHFQASQREEKEFLMCKFQEARKLVERLGLEKLDLKRQKEQALREVEHLKRCQQQMAEDKASVKAQVTSLLGELQESQSRLEAATKECQALEGRARAASEQARQLESEREALQQQHSVQVDQLRMQGQSVEAALRMERQAASEEKRKLAQLQVAYHQLFQEYDNHIKSSVVGSERKRGMQLEDLK

binding result [1]: no binding
B7: p55-R (p55 TNF receptor) (receptor, UniProt P19438 235-455, looked up)
chain: RYQRWKSKLYSIVCGKSTPEKEGELEGTTTKPLAPNPSFSPTPGFTPTLGFSPVPSSTFTSSSTYTPGDCPNFAAPRREVAPPYQGADPILATALASDPIPNPLQKWEDSAHKPQSLDTDDPATLYAVVENVPPLRWKEFVRRLGLSDHEIDRLELQNGRCLREAQYSMLATWRRRTPRREATLELLGRVLRDMDLLGCLEDIEEALCGPAALPPAPSLLR
notes: also called TNFR-I

binding result [5]: no binding
B8: RAP-2 deletion fragment spanning amino acids 95-309 (other)
chain: CKFQEARKLVERLGLEKLDLKRQKEQALREVEHLKRCQQQMAEDKASVKAQVTSLLGELQESQSRLEAATKECQALEGRARAASEQARQLESEREALQQQHSVQVDQLRMQGQSVEAALRMERQAASEEKRKLAQLQVAYHQLFQEYDNHIKSSVVGSERKRGMQLEDLKQQLQQAEEALVAKQEVIDKLKEEAEQHKIVMETVPVLKAQADIYK

The remaining lines, values behind:

B1: p75-R (p75 TNF receptor) (receptor, UniProt P20333 287-461, looked up)
chain: VKKKPLCLQREAKVPHLPADKARGTQGPEQQHLLITAPSSSSSSLESSASALDRRAPTRNQPQAPGVEASGAGEARASTGSSDSSPGGHGTQVNVTCIVNVCSSSDHSSQCSSQASSTMGDTDSSPSESPKDEQVPFSKEECAFRSQLETPETLLGSTEEKPLPLGVPDAGMKPS
binding result [1]: no binding

B2: RAP-2 deletion fragment containing amino acids 218-416 (other)
chain: QAASEEKRKLAQLQVAYHQLFQEYDNHIKSSVVGSERKRGMQLEDLKQQLQQAEEALVAKQEVIDKLKEEAEQHKIVMETVPVLKAQADIYKADFQAERQAREKLAEKKELLQEQLEQLQREYSKLKASCQESARIEDMRKRHVEVSQAPLPPAPAYLSSPLALPSQRRSPPEEPPDFCCPKCQYQAPDMDTLQIHVME
binding result [2]: binds

B3: TRADD (other, UniProt Q15628 1-312, looked up)
chain: MAAGQNGHEEWVGSAYLFVESSLDKVVLSDAYAHPQQKVAVYRALQAALAESGGSPDVLQMLKIHRSDPQLIVQLRFCGRQPCGRFLRAYREGALRAALQRSLAAALAQHSVPLQLELRAGAERLDALLADEERCLSCILAQQPDRLRDEELAELEDALRNLKCGSGARGGDGEVASAPLQPPVPSLSEVKPPPPPPPAQTFLFQGQPVVNRPLSLKDQQTFARSVGLKWRKVGRSLQRGCRALRDPALDSLAYEYEREGLYEQAFQLLRRFVQAEGRRATLQRLVEALEENELTSLAEDLLGLTDPNGGLA
binding result [1]: no binding | binding result (clone #84): no binding

Binder: B4
binding result [3]: no binding | binding result (NIK): no binding | binding result [4]: no binding | binding result (TRAF2): no binding
